Test results taken from patent US20260049134A1 (UNIVERSITY OF FLORIDA RESEARCH FOUNDATION, published 2026).
Changes are numbered by the printed parent chain. Numbers in names are those of the source.

T1: DCC
T1 construct: coated protein in the ELISA; also called DCC-His (R&D Systems)
T1 chain: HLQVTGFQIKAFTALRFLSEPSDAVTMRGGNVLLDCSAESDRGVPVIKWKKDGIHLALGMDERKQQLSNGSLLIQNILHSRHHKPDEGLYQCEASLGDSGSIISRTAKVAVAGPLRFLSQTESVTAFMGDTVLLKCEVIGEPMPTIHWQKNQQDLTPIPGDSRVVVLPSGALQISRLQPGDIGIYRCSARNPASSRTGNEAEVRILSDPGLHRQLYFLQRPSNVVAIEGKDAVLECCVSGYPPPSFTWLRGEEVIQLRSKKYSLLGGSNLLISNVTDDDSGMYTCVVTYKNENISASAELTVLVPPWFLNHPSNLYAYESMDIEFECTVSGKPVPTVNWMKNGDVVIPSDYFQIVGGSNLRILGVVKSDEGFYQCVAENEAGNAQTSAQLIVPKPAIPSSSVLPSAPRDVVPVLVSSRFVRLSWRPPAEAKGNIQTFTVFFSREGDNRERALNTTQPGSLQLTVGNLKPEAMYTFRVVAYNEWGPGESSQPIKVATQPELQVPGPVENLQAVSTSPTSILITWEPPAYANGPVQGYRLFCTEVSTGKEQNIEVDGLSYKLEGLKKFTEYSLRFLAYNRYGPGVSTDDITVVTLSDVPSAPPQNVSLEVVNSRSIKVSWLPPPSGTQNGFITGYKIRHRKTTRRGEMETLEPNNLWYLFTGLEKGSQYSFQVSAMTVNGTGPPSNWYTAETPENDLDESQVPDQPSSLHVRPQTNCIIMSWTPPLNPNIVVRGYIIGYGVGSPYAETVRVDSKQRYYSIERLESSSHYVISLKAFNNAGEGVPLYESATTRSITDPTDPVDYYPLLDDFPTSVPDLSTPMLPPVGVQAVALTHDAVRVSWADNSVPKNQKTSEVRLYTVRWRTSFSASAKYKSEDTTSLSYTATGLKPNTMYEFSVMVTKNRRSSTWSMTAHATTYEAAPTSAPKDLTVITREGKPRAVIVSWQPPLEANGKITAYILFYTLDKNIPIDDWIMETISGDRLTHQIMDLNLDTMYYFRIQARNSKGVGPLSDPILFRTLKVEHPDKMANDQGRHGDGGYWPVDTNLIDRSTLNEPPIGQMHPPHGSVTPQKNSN

T2: HHLA2 (B7-H7)
T2 construct: coated protein in the ELISA; also called HHLA2-Fc (R&D Systems)
T2 chain: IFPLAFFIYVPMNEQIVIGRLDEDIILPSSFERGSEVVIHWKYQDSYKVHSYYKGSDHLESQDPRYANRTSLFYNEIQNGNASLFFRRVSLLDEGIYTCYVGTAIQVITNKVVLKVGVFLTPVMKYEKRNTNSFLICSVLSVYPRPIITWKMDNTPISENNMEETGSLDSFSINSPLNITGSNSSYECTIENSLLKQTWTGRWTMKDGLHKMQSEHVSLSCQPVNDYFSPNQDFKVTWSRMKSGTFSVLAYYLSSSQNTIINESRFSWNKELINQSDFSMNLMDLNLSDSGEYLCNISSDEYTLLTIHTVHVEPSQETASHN

T3: ANXA1
T3 construct: coated protein in the ELISA; also called ANXA1-His (R&D Systems)
T3 chain: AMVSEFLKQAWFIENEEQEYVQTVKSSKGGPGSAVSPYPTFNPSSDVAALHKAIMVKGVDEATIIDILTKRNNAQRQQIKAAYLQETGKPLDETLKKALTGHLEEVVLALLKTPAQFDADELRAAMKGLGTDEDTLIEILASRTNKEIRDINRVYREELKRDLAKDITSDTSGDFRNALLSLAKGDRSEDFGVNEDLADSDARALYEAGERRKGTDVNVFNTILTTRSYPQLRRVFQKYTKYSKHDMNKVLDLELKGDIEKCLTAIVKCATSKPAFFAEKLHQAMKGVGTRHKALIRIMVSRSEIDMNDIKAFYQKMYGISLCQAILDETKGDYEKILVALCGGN

T4: SELL (L-Selectin)
T4 construct: coated protein in the ELISA; also called SELL-Fc-His (R&D Systems)
T4 chain: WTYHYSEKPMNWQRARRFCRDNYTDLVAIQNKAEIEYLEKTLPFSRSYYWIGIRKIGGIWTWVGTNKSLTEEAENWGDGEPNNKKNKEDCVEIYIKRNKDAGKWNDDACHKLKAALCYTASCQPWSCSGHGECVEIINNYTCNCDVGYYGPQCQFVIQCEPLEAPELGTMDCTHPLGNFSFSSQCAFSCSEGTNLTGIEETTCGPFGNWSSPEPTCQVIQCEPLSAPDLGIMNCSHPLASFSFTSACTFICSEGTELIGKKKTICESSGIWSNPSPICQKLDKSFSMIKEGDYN

B1: HW-56 chimeric rabbit-human IgG1 LA/LA/PG (antibody, V domains shown)
VH: QSVKESEGGLFKPTDTLTLTCTASGFTVSTNAVTWVRQAPGNGLEYIGTIGRSGSAYFASWAKRRSTLTRDINLNTVTLKMTSLTAADTATYFCVRGSPGYRTAISIWGPGTLVTISS
VL: AVMTQTPSSTSAAVEGTVTINCQASQSISNRLSWFQQKPGQPPKLLIYQASTLASGVPSRFKGSGSGTEFTLTISGVQREDAATYYCLGSYSSSDASFGGGTKLEIKR
notes: Fc-silenced (L234A/L235A/P329G) IgG1, kappa; Alexa Fluor 647-labeled in single-step flow cytometry; Cluster C-45
B2: HW-81 chimeric rabbit-human IgG1 LA/LA/PG (antibody, V domains shown)
VH: QKQLVESGGGLVTPGGTLTLTCTVSGFSLSSNGVSWVRQAPGKGLEYIGLIRSIGSTYYATWAKGRFTISKTSTTVDLKITSPTTEDTATYFCARGGYRNGFKLWGPGTLVTVSS
VL: QPVLTQSPSVSAALGASAKLTCTLSSAHKTYYIEWYQQQHPGKAPRYLMQLQSDGSYTKGTGVPDRFSGSSSGADRYLIISSVQAEDEADYICGVIDSAVYVFGGGTQLTVTG
notes: Fc-silenced (L234A/L235A/P329G) IgG1, lambda; Alexa Fluor 647-labeled in single-step flow cytometry; Cluster C-45
B3: HW-97 chimeric rabbit-human IgG1 LA/LA/PG (antibody, V domains shown)
VH: QKQLVESGGRLVTPGTPLTLTCTVTGIDLSSHGMSWVRQAPGKGLEWIGVIYPSGSTWYASWARGRFTISKTSTTVDLKMTSLTTEDTATHFCARGDVGGADNNIWGPGTLVTVSS
VL: SFVLTQPASVQVDLGQTVSLTCTAETLSRSYASWYQQKPGQAPVLLIYRDTSRPSGVPDRFSGSSSGNTATLTISGAQAGDEADYYCATSDGSGSSYQYVFGGGTQLTVTG
notes: Fc-silenced (L234A/L235A/P329G) IgG1, lambda; Alexa Fluor 647-labeled in single-step flow cytometry; Prototype of cluster C-97
B4: HW-101 chimeric rabbit-human IgG1 LA/LA/PG (antibody, V domains shown)
VH: QEQLVESGGRLVTPGTPLTLTCKASGFSLGKYDMSWVRQAPGKGLEWIGTIYAGSGSTWYASWAKGRFTISKTSTTVDLKMTSLTTEDTATYFCARDFLGVNSIWGPGTLVTISS
VL: B3 VL with D13N, E25D, G40D, Y48H, S65N, S96N, Y97F, Q98H, Y99F
notes: Fc-silenced (L234A/L235A/P329G) IgG1, lambda; Alexa Fluor 647-labeled in single-step flow cytometry; Cluster C-97
B5: HW-113 chimeric rabbit-human IgG1 LA/LA/PG (antibody, V domains shown)
VH: QKQLVESGGGLVQPGGSLTLTCTVSGFSLNKYYMGWFRQAPGKGLEWIGVISRSGDTYYSSWAKGRFTISKASTTVDLRITSPTTEDTATYFCARDASSPGFHGDRLDLWGQGTLVTVSS
VL: B3 VL with D13N, E25D, S93I, S96N, Q98L, Y99W
notes: Fc-silenced (L234A/L235A/P329G) IgG1, lambda; Alexa Fluor 647-labeled in single-step flow cytometry
B6: HW-8 chimeric rabbit-human IgG1 LA/LA/PG (antibody, V domains shown)
VH: QSLEESGGRLVTPGTPLTLTCTVSGFSLSSYAMSWVRQAPGKGLEWIGAISTGGSTTYASWAKGRFTISKTSSTTVDLKMTSLTTEDTATYFCVRHFRLWGPGTLVTISS
VL: QVLTQTPSSVSAAVGGTVTIKCQASQSIGSALAWFQQKPGQRPKLLIYRASNLASGVPSRFKGSGSGTEFALTISGVQREDAATYYCLGGAAAVWAFGAGTNVEIKR
notes: as for B1

Target: T1, DCC
Assay: ELISA on coated DCC-His
Method: (§1) Recombinant purified ECDs (50-150 ng) of each putative target protein were coated, incubated with 150 ng of the indicated primary antibody, and binding was detected using a peroxidase-conjugated anti-human Fab secondary antibody. Heatmap represents averages of technical triplicates. (8B) Target validation via siRNA knockdown. H929 cells were transfected with siRNA pools targeting the putative antibody targets ICAM1, CADM1, and PTPRG. Cells were then subjected to cognate IgG binding analysis via flow cytometry. (NT, non-targeting siRNA).
(§2) ELISA ELISA was conducted as described previously. Briefly, 50-150 ng of antigen was coated overnight in half-area 96-well plates at 4° C., blocked with 3% BSA at 37° C. for 1 h, and 150 ng of chimeric rabbit/human IgG1 was added, incubating for 2 h at 37° C. […] After incubating at 37° C. for 15 min-1 h (depending on intensity of controls), data were acquired using a SpectraMax M5 plate reader (Molecular Devices).

| Binder | binding result |
| --- | --- |
| B1 | no binding (tested: 150 ng IgG1 per well) |
| B2 | no binding (tested: 150 ng IgG1 per well) |
| B3 | no binding (tested: 150 ng IgG1 per well) |
| B4 | no binding (tested: 150 ng IgG1 per well) |
| B5 | no binding (tested: 150 ng IgG1 per well) |
| B6 | no binding (tested: 150 ng IgG1 per well) |

Target: T2, HHLA2 (B7-H7)
Assay: ELISA on coated HHLA2-Fc
Method: as §1, §2

| Binder | binding result |
| --- | --- |
| B1 | no binding (tested: 150 ng IgG1 per well) |
| B2 | no binding (tested: 150 ng IgG1 per well) |
| B3 | no binding (tested: 150 ng IgG1 per well) |
| B4 | no binding (tested: 150 ng IgG1 per well) |
| B5 | no binding (tested: 150 ng IgG1 per well) |
| B6 | no binding (tested: 150 ng IgG1 per well) |

Target: T3, ANXA1
Assay: ELISA on coated ANXA1-His
Method: as §1, §2

| Binder | binding result |
| --- | --- |
| B1 | no binding (tested: 150 ng IgG1 per well) |
| B2 | no binding (tested: 150 ng IgG1 per well) |
| B3 | no binding (tested: 150 ng IgG1 per well) |
| B4 | no binding (tested: 150 ng IgG1 per well) |
| B5 | no binding (tested: 150 ng IgG1 per well) |
| B6 | no binding (tested: 150 ng IgG1 per well) |

Target: T2, HHLA2 (B7-H7)
Assay: ELISA on coated HHLA2-Fc, 150 ng IgG1; None 0.087
Method: as §1, §2

| ELISA Absorbance (405 nm-570 nm) | Binder |
| --- | --- |
| 0.076 | B1 |
| 0.072 | B2 |
| 0.079 | B3 |
| 0.069 | B4 |
| 0.071 | B5 |
| 0.073 | B6 |

Target: T5, ICAM1-Fc (R&D Systems) (human, UniProt P05362 28-480)
T5 construct: Bought; also called ICAM-1/CD54; not shown: Fc of the bought fusion protein
Assay: ELISA on coated ICAM1-Fc, 150 ng IgG1; None 0.060
Method: as §1, §2

T5 sequence (P05362 28-480): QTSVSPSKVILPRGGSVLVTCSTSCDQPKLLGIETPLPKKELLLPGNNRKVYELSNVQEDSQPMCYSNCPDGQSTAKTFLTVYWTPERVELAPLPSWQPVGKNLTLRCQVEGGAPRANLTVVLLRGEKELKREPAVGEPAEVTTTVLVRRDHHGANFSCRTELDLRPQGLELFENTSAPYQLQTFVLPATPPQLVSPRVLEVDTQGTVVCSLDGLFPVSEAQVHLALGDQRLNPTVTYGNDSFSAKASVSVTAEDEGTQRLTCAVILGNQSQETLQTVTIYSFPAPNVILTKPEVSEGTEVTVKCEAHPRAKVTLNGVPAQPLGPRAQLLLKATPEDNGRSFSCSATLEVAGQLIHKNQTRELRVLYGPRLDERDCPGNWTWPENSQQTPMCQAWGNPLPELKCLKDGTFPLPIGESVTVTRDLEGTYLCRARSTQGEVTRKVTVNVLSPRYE

| ELISA Absorbance (405 nm-570 nm) | Binder |
| --- | --- |
| 0.074 | B1 |
| 0.051 | B2 |
| 0.081 | B3 |
| 0.055 | B4 |
| 0.498 | B5 |
| 0.067 | B6 |

Target: T4, SELL (L-Selectin)
Assay: ELISA on coated SELL-Fc-His, 150 ng IgG1; None 0.096
Method: as §1, §2

| ELISA Absorbance (405 nm-570 nm) | Binder |
| --- | --- |
| 0.117 | B1 |
| 0.083 | B2 |
| 0.075 | B3 |
| 0.072 | B4 |
| 0.088 | B5 |
| 0.074 | B6 |
